According to patent publication US20210301025A1 (published 2021):

B1: P114AR7P92-H5 (designed binder, not shown: small tags and cut ends)
chain: LPAPKNLVVSRVTEDSARLSWTAPDAAFDSFWIRYLEFLLGGEAIVLTVPGSERSYDLTGLKPGTEYVVQIMGVKGGTVSPPLSAIFTT
B2: P114AR7P93-D11 (designed binder, not shown: small tags and cut ends)
chain: LPAPKNLVVSRVTEDSARLSWTAPDAAFDSFWIRYFEFLGSGEAIVLTVPGSERSYDLTGLKPGTEYVVGINGVKGGYISYPLSAIFTT
B3: P114AR7P95-D4 (designed binder, not shown: small tags and cut ends)
chain: LPAPKNLVVSRVTEDSARLSWTAPDAAFDSFWIRYFEFLGSGEAIVLTVPGSERSYDLTGLKPGTEYVVQILGVKGGYISIPLSAIFTT
B4: P114AR7P95-G7 (designed binder, not shown: small tags and cut ends)
chain: LPAPKNLVVSRVTEDSARLSWTAPDAAFDSFWIRYFELLSTGEAIVLTVPGSERSYDLTGLKPGTEYVVNIMGVKGGSISPPLSAIFTT
B5: P114AR7P95-E3 (designed binder, not shown: small tags and cut ends)
chain: LPAPKNLVVSRVTEDSARLSWTAPDAAFDSFWIRYFEFLGSGEAIVLTVPGSERSYDLTGLKPGTEYVVQIMGVKGGTVSPPLSAIFTT
B6: P54AR4-83v2 T48C, NEM conjugate (designed binder, not shown: small tags and cut ends)
chain: LPAPKNLVVSEVTEDSARLSWDDPWAFYESFLIQYQESEKVGEAIVLCVPGSERSYDLTGLKPGTEYTVSIYGVHNVYKDTNMRGLPLSAIFTT
modifications: N-ethyl maleimide (NEM) on Cys 48
B7: P54AR4-83v2 Y72C, NEM conjugate (designed binder, not shown: small tags and cut ends)
chain: LPAPKNLVVSEVTEDSARLSWDDPWAFYESFLIQYQESEKVGEAIVLTVPGSERSYDLTGLKPGTEYTVSICGVHNVYKDTNMRGLPLSAIFTT
modifications: N-ethyl maleimide (NEM) on Cys 72
B8: P54AR4-83v2 V46C, NEM conjugate (designed binder, not shown: small tags and cut ends)
chain: LPAPKNLVVSEVTEDSARLSWDDPWAFYESFLIQYQESEKVGEAICLTVPGSERSYDLTGLKPGTEYTVSIYGVHNVYKDTNMRGLPLSAIFTT
modifications: N-ethyl maleimide (NEM) on Cys 46
B9: P54AR4-83v2 W25C, NEM conjugate (designed binder, not shown: small tags and cut ends)
chain: LPAPKNLVVSEVTEDSARLSWDDPCAFYESFLIQYQESEKVGEAIVLTVPGSERSYDLTGLKPGTEYTVSIYGVHNVYKDTNMRGLPLSAIFTT
modifications: N-ethyl maleimide (NEM) on Cys 25
B10: P54AR4-83v2 T68C, NEM conjugate (designed binder, not shown: small tags and cut ends)
chain: LPAPKNLVVSEVTEDSARLSWDDPWAFYESFLIQYQESEKVGEAIVLTVPGSERSYDLTGLKPGTEYCVSIYGVHNVYKDTNMRGLPLSAIFTT
modifications: N-ethyl maleimide (NEM) on Cys 68
notes: not used
B11: P54AR4-83v2 V77C, NEM conjugate (designed binder, not shown: small tags and cut ends)
chain: LPAPKNLVVSEVTEDSARLSWDDPWAFYESFLIQYQESEKVGEAIVLTVPGSERSYDLTGLKPGTEYTVSIYGVHNCYKDTNMRGLPLSAIFTT
modifications: N-ethyl maleimide (NEM) on Cys 77
B12: P54AR4-83v2 V12C, NEM conjugate (designed binder, not shown: small tags and cut ends)
chain: LPAPKNLVVSECTEDSARLSWDDPWAFYESFLIQYQESEKVGEAIVLTVPGSERSYDLTGLKPGTEYTVSIYGVHNVYKDTNMRGLPLSAIFTT
modifications: N-ethyl maleimide (NEM) on Cys 12
B13: P54AR4-83v2 V74C, NEM conjugate (designed binder, not shown: small tags and cut ends)
chain: LPAPKNLVVSEVTEDSARLSWDDPWAFYESFLIQYQESEKVGEAIVLTVPGSERSYDLTGLKPGTEYTVSIYGCHNVYKDTNMRGLPLSAIFTT
modifications: N-ethyl maleimide (NEM) on Cys 74
B14: P54AR4-83v2 Y78C, NEM conjugate (designed binder, not shown: small tags and cut ends)
chain: LPAPKNLVVSEVTEDSARLSWDDPWAFYESFLIQYQESEKVGEAIVLTVPGSERSYDLTGLKPGTEYTVSIYGVHNVCKDTNMRGLPLSAIFTT
modifications: N-ethyl maleimide (NEM) on Cys 78
B15: P54AR4-83v2 T59C, NEM conjugate (designed binder, not shown: small tags and cut ends)
chain: LPAPKNLVVSEVTEDSARLSWDDPWAFYESFLIQYQESEKVGEAIVLTVPGSERSYDLCGLKPGTEYTVSIYGVHNVYKDTNMRGLPLSAIFTT
modifications: N-ethyl maleimide (NEM) on Cys 59
B16: P54AR4-83v2 V49C, NEM conjugate (designed binder, not shown: small tags and cut ends)
chain: LPAPKNLVVSEVTEDSARLSWDDPWAFYESFLIQYQESEKVGEAIVLTCPGSERSYDLTGLKPGTEYTVSIYGVHNVYKDTNMRGLPLSAIFTT
modifications: N-ethyl maleimide (NEM) on Cys 49
B17: P54AR4-83v2 T81C, NEM conjugate (designed binder, not shown: small tags and cut ends)
chain: LPAPKNLVVSEVTEDSARLSWDDPWAFYESFLIQYQESEKVGEAIVLTVPGSERSYDLTGLKPGTEYTVSIYGVHNVYKDCNMRGLPLSAIFTT
modifications: N-ethyl maleimide (NEM) on Cys 81
B18: P54AR4-83v2 Y28C, NEM conjugate (designed binder, not shown: small tags and cut ends)
chain: LPAPKNLVVSEVTEDSARLSWDDPWAFCESFLIQYQESEKVGEAIVLTVPGSERSYDLTGLKPGTEYTVSIYGVHNVYKDTNMRGLPLSAIFTT
modifications: N-ethyl maleimide (NEM) on Cys 28
B19: P54AR4-83v2 V8C, NEM conjugate (designed binder, not shown: small tags and cut ends)
chain: LPAPKNLCVSEVTEDSARLSWDDPWAFYESFLIQYQESEKVGEAIVLTVPGSERSYDLTGLKPGTEYTVSIYGVHNVYKDTNMRGLPLSAIFTT
modifications: N-ethyl maleimide (NEM) on Cys 8
B20: P54AR4-83v2 V9C, NEM conjugate (designed binder, not shown: small tags and cut ends)
chain: LPAPKNLVCSEVTEDSARLSWDDPWAFYESFLIQYQESEKVGEAIVLTVPGSERSYDLTGLKPGTEYTVSIYGVHNVYKDTNMRGLPLSAIFTT
modifications: N-ethyl maleimide (NEM) on Cys 9
B21: P54AR4-83v2 T93C, NEM conjugate (designed binder, not shown: small tags and cut ends)
chain: LPAPKNLVVSEVTEDSARLSWDDPWAFYESFLIQYQESEKVGEAIVLTVPGSERSYDLTGLKPGTEYTVSIYGVHNVYKDTNMRGLPLSAIFCT
modifications: N-ethyl maleimide (NEM) on Cys 93
B22: P54AR4-83v2 V41C, NEM conjugate (designed binder, not shown: small tags and cut ends)
chain: LPAPKNLVVSEVTEDSARLSWDDPWAFYESFLIQYQESEKCGEAIVLTVPGSERSYDLTGLKPGTEYTVSIYGVHNVYKDTNMRGLPLSAIFTT
modifications: N-ethyl maleimide (NEM) on Cys 41

Columns and labels:
[1] = target: T1, recombinant c-Met extracellular domain (human, UniProt P08581 16-932); experiment: SPR kinetic analysis as in Example 2
T1 construct: Construct used for SPR is not described further (may be the Fc chimera, as the protocol captures on anti-human Fc)

[2] = target: T2, human c-Met on cells (NCI-H441, NCI-H292, U87-MG) (human, UniProt P08581 25-1390); experiment: NCI-H441 cell binding, anti-His fluorescence
T2 construct: Endogenous c-Met of human tumor cell lines; also called hepatocyte growth factor receptor
Procedure: Purified FN3 domains (50 μL/well; 0 to 1000 nM) were added to the cells for 1 hour at 4° C. in duplicate plates. Supernatant was removed and cells were washed three times with FACS stain buffer (150 μL/well, BD Biosciences, cat #554657). Cells were incubated with biotinylated-anti HIS antibody (diluted 1:160 in FACS stain buffer, 50 μL/well, R&D Systems, cat # BAM050) for 30 minutes at 4° C. Cells were washed three times with FACS stain buffer (150 μL/well), after which wells were incubated with anti mouse IgG1-Alexa 488 conjugated antibody (diluted 1:80 in FACS stain buffer, 50 μL/well, Life Technologies, cat # A21121) for 30 minutes at 4° C. Cells were washed three times with FACS stain buffer (150 μL/well) and left in FACS stain buffer (50 μL/well). Total fluorescence was determined using an Acumen eX3 reader. Data were plotted as raw fluorescence signal against the logarithm of the FN3 domain molar concentration and fitted to a sigmoidal dose-response curve with variable slope using GraphPad Prism 4 (GraphPad Software) to calculate EC₅₀ values.

[3] = target: T2, human c-Met on cells (NCI-H441, …); experiment: cell-based or functional assay
[4] = target: T3, EGFR (form used in the assay not stated) (human, UniProt P00533 25-645, limits assumed); experiment: ELISA, NEM conjugate, 100 nM
[5] = target: T3, EGFR (form used in the assay not stated); experiment: ELISA, NEM conjugate, 10 nM
[6] = target: T3, EGFR (form used in the assay not stated); experiment: ELISA, NEM conjugate, 500 nM

Binder	Kd [1]	EC50 [2]	Inhibition of proliferation of U87-MG cells IC50 [3]	pMet inhibition in H441 cells IC50 [3]	binding relative to P54AR4-83v2 parent [4]	binding relative to P54AR4-83v2 parent [5]	binding relative to P54AR4-83v2 parent [6]
B1	11.6 nM	22 nM	672 nM	766 nM			
B2		2.3 nM	14.4 nM	16 nM			
B3	0.4 nM	1.4 nM	19.4 nM	19.5 nM			
B4	20 nM	11.3 nM	692 nM	659 nM			
B5		3.2 nM	209 nM	205 nM			
B6					1 ratio	0.88 ratio	0.93 ratio
B7					1 ratio	0.93 ratio	0.93 ratio
B8					1.01 ratio	0.61 ratio	0.9 ratio
B9					0.64 ratio	0.38 ratio	0.7 ratio
B10					1.04 ratio	0.83 ratio	0.95 ratio
B11					0 ratio	0.03 ratio	0.03 ratio
B12					1.06 ratio	0.87 ratio	0.93 ratio
B13					1.01 ratio	0.76 ratio	0.95 ratio
B14					0.63 ratio	0.31 ratio	0.68 ratio
B15					1.04 ratio	0.83 ratio	0.93 ratio
B16					1.01 ratio	0.96 ratio	0.98 ratio
B17					0.9 ratio	0.5 ratio	1.02 ratio
B18					0.01 ratio	0 ratio	0.09 ratio
B19					1.03 ratio	0.96 ratio	0.9 ratio
B20					1.03 ratio	0.94 ratio	0.93 ratio
B21					1.05 ratio	0.96 ratio	1.04 ratio
B22					0.99 ratio	0.92 ratio	0.95 ratio
